Holding throughout (assay): fluorescence polarisation
Holding throughout (conditions): both partners purified

The target of test [1] is T1, IMPα5 lacking the IBB domain (residues 73-538) (UniProt P52294 73-538).
T1 construct: also called ΔIBB-IMPα5; importin alpha 5

Test [2] addresses T2, IMPα7 lacking the IBB domain (residues 73-536) (UniProt O60684 73-536).
T2 construct: also called ΔIBB-IMPα7; importin alpha 7

Test [3] addresses IMPα1 lacking the IBB domain (residues 70-529) (UniProt P52292 70-529).
The target of test [4] is T3, IMPα3 lacking the IBB domain (residues 64-521) (UniProt O00629 64-521).
T3 construct: also called ΔIBB-IMPα3; KPNA4
T3 sequence (looked up): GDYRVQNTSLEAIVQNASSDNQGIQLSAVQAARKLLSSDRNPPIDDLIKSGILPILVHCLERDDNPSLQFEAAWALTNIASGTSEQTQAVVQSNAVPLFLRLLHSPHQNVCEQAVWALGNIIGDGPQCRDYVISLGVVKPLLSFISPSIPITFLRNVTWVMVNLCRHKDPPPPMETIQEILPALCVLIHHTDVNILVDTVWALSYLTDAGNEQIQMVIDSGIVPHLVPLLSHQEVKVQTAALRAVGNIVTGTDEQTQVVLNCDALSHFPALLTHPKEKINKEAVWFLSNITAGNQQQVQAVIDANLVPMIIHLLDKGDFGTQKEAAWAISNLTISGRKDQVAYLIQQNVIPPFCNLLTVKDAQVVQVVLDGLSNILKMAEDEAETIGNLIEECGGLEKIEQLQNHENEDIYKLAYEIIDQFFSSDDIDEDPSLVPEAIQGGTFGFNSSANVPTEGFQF

This note sets out measurements from PMC8956657 (Nature Communications, 2022).

Broadly, the Kd is the equilibrium constant for the complex coming apart.

Where no end group is shown, it is not given here.

T1 sequence (P52294 73-538): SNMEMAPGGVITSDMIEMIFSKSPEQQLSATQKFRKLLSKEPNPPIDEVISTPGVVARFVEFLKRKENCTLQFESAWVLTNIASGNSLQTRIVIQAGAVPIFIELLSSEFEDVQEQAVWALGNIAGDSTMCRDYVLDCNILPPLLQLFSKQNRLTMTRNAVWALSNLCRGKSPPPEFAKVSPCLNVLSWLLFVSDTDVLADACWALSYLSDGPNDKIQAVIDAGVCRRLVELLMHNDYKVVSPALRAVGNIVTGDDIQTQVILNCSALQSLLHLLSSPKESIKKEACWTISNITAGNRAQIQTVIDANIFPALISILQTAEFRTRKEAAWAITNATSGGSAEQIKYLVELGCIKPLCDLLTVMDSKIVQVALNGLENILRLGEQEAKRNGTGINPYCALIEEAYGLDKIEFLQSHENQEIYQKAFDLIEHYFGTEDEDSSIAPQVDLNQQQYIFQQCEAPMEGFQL
T2 sequence (O60684 73-536): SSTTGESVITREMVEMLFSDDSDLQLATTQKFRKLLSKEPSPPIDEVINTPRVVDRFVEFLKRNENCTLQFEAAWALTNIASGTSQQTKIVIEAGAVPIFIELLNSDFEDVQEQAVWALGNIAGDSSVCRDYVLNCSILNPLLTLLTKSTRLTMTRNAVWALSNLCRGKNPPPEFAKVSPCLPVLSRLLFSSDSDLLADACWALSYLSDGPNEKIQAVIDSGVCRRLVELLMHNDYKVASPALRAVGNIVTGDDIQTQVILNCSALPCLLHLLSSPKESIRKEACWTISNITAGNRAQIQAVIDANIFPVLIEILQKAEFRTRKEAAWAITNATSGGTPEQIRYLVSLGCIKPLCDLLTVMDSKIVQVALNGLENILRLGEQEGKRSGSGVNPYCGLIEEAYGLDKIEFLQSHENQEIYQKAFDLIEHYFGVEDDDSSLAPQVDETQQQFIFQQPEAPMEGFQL

B1: FITC-tagged MERS-CoV ORF4b NLS peptide (residues 19-39), wild type (peptide)
peptide: RKARKRSHSPTKKLRYVKRRF
modifications: also: FITC-tagged
For B1, in test [1], the binding result is “binds”. Moreover, the Kd in test [2] was 1.9 nM; in test [3] it was 2.5 nM; in test [4], 1.4 nM.
